Data as given in US9504755B2, “Multi-arm polymeric alkanoate conjugates” (Nektar Therapeutics, priority 2008, dated 2016).
Marks after values point to notes of the source that are not given here.

Tests used:
[1] = Stability in human plasma; format: in vitro ADME; details: 37° C.
Experimental: (§1) The objective of the study was to assess the stability of 4-ARM-PEG20K-BA-docetaxel in mouse, rat, dog, and human plasma.
(§2) 4-ARM-PEG20K-BA-docetaxel was spiked ([…]; 60 μM) into heparinized, pooled male mouse, rat, and dog plasma; mixed sex pooled human plasma; and phosphate buffered saline. Triplicate samples were incubated at 37° C. for 0, 15, 30, 60, 120, and 240 min. Aliquots were removed at each timepoint and analyzed for disappearance of 4-ARM-PEG20K-BA-docetaxel and appearance of docetaxel using the validated dog plasma analytical method.

[2] = Stability in phosphate buffered saline; format: physicochemical; details: 37° C.
Experimental: as §1, §2

Stability in dog plasma = format: in vitro ADME; details: 37° C.
Experimental: as §1, §2

[3] = Stability in mouse plasma; format: in vitro ADME; details: 37° C.
Experimental: as §1, §2

Stability in rat plasma = format: in vitro ADME; details: 37° C.
Experimental: as §1, §2

H460 tumors = test: Anti-tumor activity in H460 non-small cell lung mouse xenograft model; format: in vivo; details: for antitumor activity below MTD: 4-ARM-PEG20K-BA-DOC at 19 mg/kg (58% of its MTD), docetaxel doses less than 25 mg/kg
Experimental: H460, LS174T and LoVo tumors were established in female athymic nude mice. Groups of 10 mice received a total of three single doses of 4-ARM-PEG20K-BA-DOC or docetaxel administered every 7 days (q7d×3) at several doses up to a maximum tolerated dose (MTD). Control groups received no treatment after tumor implant. Animals were weighed daily for the first five days and twice weekly thereafter. Tumor volumes were measured twice weekly after the first drug injection.
Anti-tumor activity was measured as changes in tumor volume, time to reach endpoint, and complete or partial tumor regression.
Treatment outcome was evaluated by Tumor Growth Delay (TGD), which is defined as the increase in median time to endpoint in a treatment group compared to the control group. Here it is expressed as % TGD, as a percentage to the median time to endpoint of the control group.
A tumor whose volume was reduced to 50% or less for three consecutive measurements compared to its volume on Day 1 was considered to be in partial regression. Complete regression was defined as volume […] 13.5 mm^3 for three consecutive measurements.
Acceptable toxicity was defined as a group mean body weight (BW) loss of less than 20% during the study and not more than one treatment-related death among ten treated animals.

[4] = 18.7 mg/kg (56.1 mg/m^2), q7d×3
[5] = 25 mg/kg (75 mg/m^2), q7d×3 (MTD of docetaxel)
[6] = 33.3 mg/kg (99.9 mg/m^2), q7d×3

4-ARM-PEG20K-Butanoate-Linked Docetaxel Conjugate [4-ARM-PEG20K-BA-DOC]
Conjugate remaining at 4 hr (%) ([1]; 60 μM): 88%
Docetaxel released at 4 hr (%) ([1]; 60 μM): 4%
Mass balance (%) ([1]; 4 hr): 92%
Docetaxel released at 4 hr (%) ([2]; 60 μM): 0.6%
Mass balance (%) ([2]; 4 hr): 86%
Conjugate remaining at 4 hr (%) (Stability in dog plasma; 60 μM): 93%
Docetaxel released at 4 hr (%) (Stability in dog plasma; 60 μM): 3%
Mass balance (%) (Stability in dog plasma; 4 hr): 95%
Conjugate remaining at 4 hr (%) ([3]; 60 μM): 72%
Docetaxel released at 4 hr (%) ([3]; 60 μM): 20%
Mass balance (%) ([3]; 4 hr): 92%
Conjugate remaining at 4 hr (%) (Stability in rat plasma; 60 μM): 64%
Docetaxel released at 4 hr (%) (Stability in rat plasma; 60 μM): 20%
Mass balance (%) (Stability in rat plasma; 4 hr): 84%
BW Loss (%) (H460 tumors; 14 mg/kg (42 mg/m^2), q7d×3): 0/0%
No. Surviving/No. Treated Mice (H460 tumors; 14 mg/kg (42 mg/m^2), q7d×3): 10/10
TGD (%) (H460 tumors; 14 mg/kg (42 mg/m^2), q7d×3): −1%
BW Loss (%) (H460 tumors; [4]): 6.2%
Day of BW Nadir (H460 tumors; [4]): 22
No. Surviving/No. Treated Mice (H460 tumors; [4]): 10/10
TGD (%) (H460 tumors; [4]): 56* %
Tumor growth delay (%) (H460 tumors; 19 mg/kg (58% MTD), q7d×3): 56%
Day of BW Nadir (H460 tumors; 25 mg/kg (75 mg/m^2), q7d×3): 29
No. Surviving/No. Treated Mice (H460 tumors; 25 mg/kg (75 mg/m^2), q7d×3): 10/10
BW Loss (%) (H460 tumors; [5]): 10.4%
TGD (%) (H460 tumors; [5]): 72** %
Decrease in body weight (H460 tumors; 33 mg/kg (MTD)): 14.2%
Tumor growth delay (%) (H460 tumors; 33 mg/kg (MTD), q7d×3): 122%
BW Loss (%) (H460 tumors; [6]): 14.2%
Day of BW Nadir (H460 tumors; [6]): 22
No. Surviving/No. Treated Mice (H460 tumors; [6]): 10/10
TGD (%) (H460 tumors; [6]): 122** %
antitumor activity below MTD (H460 tumors): retained significant antitumor activity
% TGD fold greater than for docetaxel (H460 tumors; each at MTD): 2.5 fold

CC(=O)O[C@@]12CO[C@@H]1C[C@H](O)[C@@]1(C)C(=O)[C@H](O)C3=C(C)[C@@H](OC(=O)[C@H](O)[C@@H](NC(=O)OC(C)(C)C)c4ccccc4)C[C@@](O)([C@@H](OC(=O)c4ccccc4)[C@H]21)C3(C)C [Docetaxel, reference compound]
BW Loss (%) (H460 tumors; 10 mg/kg (30 mg/m^2), q7d×3): 0/0%
No. Surviving/No. Treated Mice (H460 tumors; 10 mg/kg (30 mg/m^2), q7d×3): 10/10
TGD (%) (H460 tumors; 10 mg/kg (30 mg/m^2), q7d×3): −2%
BW Loss (%) (H460 tumors; 14 mg/kg (42 mg/m^2), q7d×3): 4.1%
Day of BW Nadir (H460 tumors; 14 mg/kg (42 mg/m^2), q7d×3): 19
No. Surviving/No. Treated Mice (H460 tumors; 14 mg/kg (42 mg/m^2), q7d×3): 10/10
TGD (%) (H460 tumors; 14 mg/kg (42 mg/m^2), q7d×3): 4%
BW Loss (%) (H460 tumors; [4]): 9.7%
Day of BW Nadir (H460 tumors; [4]): 22
No. Surviving/No. Treated Mice (H460 tumors; [4]): 10/10
TGD (%) (H460 tumors; [4]): 23%
Day of BW Nadir (H460 tumors; 25 mg/kg (75 mg/m^2), q7d×3): 26
No. Surviving/No. Treated Mice (H460 tumors; 25 mg/kg (75 mg/m^2), q7d×3): 10/10
BW Loss (%) (H460 tumors; [5]): 15.5%
TGD (%) (H460 tumors; [5]): 48%
TGD (%) (H460 tumors; 25 mg/kg (75 mg/m^2), q7d×3 (MTD of docetaxel), listed as docetaxel): 48%
antitumor activity below MTD (H460 tumors): did not
